# Experimental data from patent publication WO2016002189A1 (dated 2016).
# T1: peptide consisting of amino acid residues 111 to 144 of proglucagon
# T1 construct: Synthetic peptide; also called proglucagon (111-144); proglucagon 111-144 antigen
# T1 peptide: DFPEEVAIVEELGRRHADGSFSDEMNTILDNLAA
# T2: human GLP-2 (manufactured by Yanaihara Laboratories) (human, UniProt P01275 146-178)
# T2 construct: also called glucagon-like peptide-2
# T2 peptide (looked up): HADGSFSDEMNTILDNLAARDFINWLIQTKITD
# T3: human GLP-1 (manufactured by Yanaihara Laboratories) (human, UniProt P01275 98-127, limits assumed)
# T3 construct: also called glucagon-like peptide-1
# T3 peptide (looked up): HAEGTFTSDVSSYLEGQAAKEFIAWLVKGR
# B1: SCC-MGD-913Ab (antibody, V domains shown)
# VH: DVKLVESGGGLVKPGGSLKLSCAASGFTFSSFAMTWVRQTPEKRLEWVATISNGGSYTYYPDSVKGRFTISRDNAKNTLYLQMSSLRSEDTAMYYCTRDGAGKGFPLDYWGQGTTLTVSS
# VL: NILLTQSPSSLAVSAGEKVTMSCKSSQSVFYSSNQKNYLAWYQQKPGQSPKLLIYWASTRESGVPDRFTGSGSGTDFTLTISSVQAEDLAIYYCHQYFSSLTFGAGTKLELK
# notes: Mouse hybridoma monoclonal from immunisation with the proglucagon 111-144 peptide
# Experiments:
# [1] = target: T1, peptide consisting of amino acid …; test: ELISA screening of hybridomas against the proglucagon peptides
# proglucagon = target: T4, proglucagon (Homo sapiens (Human), UniProt P01275 21-180); test: epitope assay (chemiluminescent immunoassay)
# T4 construct: Native protein in culture supernatants or HPLC fractions of human duodenal cancer cell lines, not purified recombinant protein; also called proglucagon protein
# [2] = target: T5, human glucagon (manufactured by Yanaihara Laboratories) (human, UniProt P01275 53-81); test: competitive ELISA with biotinylated proglucagon (111-144) as labelled antigen
# T5 construct: Glucagon is only the 29-residue hormone cut from it
# [3] = target: T2, human GLP-2 (manufactured by Yanaihara …); test: as above
# [4] = target: T3, human GLP-1 (manufactured by Yanaihara …); test: as above
# T5 sequence (P01275 53-81): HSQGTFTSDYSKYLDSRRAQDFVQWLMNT
# T4 sequence (P01275 21-180): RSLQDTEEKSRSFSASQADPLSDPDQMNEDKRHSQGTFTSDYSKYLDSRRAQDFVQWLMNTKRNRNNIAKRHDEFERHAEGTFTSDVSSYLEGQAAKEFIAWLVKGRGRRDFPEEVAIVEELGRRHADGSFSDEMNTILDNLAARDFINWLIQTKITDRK
binder,measurement,setting,value
B1,binding result,[1],binds
same,binding result,proglucagon,binds
same,binding result,[2],no binding
same,binding result,[3],no binding
same,binding result,[4],no binding
